Binding result and Kd data for six molecules are collected here from article PMC6565636, “Rif1 promotes association of G-quadruplex (G4) by its specific G4 binding and oligomerization activities”.

The target in series [1] is T1, Rif1 full-length (His6-Rif1-FLAG3) (Schizosaccharomyces pombe (fission …, UniProt Q96UP3 1-1400)).
T1 sequence: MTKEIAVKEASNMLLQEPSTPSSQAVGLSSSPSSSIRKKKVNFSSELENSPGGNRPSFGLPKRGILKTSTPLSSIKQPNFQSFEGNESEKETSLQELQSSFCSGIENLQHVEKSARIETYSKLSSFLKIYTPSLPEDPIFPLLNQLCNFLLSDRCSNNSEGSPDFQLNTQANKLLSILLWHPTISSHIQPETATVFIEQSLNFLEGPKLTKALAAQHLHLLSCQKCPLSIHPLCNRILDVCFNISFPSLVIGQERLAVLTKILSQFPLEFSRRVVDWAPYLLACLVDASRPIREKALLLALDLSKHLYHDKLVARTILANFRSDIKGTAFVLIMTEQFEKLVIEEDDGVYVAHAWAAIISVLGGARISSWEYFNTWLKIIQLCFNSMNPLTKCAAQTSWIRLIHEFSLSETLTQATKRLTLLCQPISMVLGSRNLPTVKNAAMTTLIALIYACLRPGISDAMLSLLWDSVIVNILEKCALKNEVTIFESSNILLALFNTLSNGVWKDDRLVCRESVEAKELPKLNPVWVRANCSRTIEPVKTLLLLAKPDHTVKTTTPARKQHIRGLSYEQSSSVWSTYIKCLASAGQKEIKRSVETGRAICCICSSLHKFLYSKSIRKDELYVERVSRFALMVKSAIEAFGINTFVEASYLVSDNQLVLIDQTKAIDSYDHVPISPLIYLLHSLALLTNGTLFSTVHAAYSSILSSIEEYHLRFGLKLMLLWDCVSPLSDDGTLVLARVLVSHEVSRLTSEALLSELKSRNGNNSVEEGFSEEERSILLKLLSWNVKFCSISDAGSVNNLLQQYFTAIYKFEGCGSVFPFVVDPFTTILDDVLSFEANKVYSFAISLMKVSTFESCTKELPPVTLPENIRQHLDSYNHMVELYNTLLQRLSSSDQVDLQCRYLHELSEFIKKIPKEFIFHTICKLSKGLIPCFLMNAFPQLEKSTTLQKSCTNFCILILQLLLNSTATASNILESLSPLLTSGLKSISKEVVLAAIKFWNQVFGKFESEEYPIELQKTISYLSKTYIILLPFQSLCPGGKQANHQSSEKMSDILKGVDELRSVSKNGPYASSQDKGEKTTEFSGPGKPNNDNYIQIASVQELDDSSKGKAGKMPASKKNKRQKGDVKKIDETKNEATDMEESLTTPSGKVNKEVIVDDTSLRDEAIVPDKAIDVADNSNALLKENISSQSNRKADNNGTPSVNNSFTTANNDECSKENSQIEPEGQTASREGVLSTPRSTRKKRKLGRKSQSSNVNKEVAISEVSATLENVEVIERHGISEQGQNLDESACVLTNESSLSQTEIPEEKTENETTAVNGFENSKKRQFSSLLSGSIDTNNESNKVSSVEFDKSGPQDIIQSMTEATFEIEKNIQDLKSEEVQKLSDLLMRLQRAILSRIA
The series is described as follows: EMSA; KCl; three repeats most efficient; EMSA with oligos heat-denatured and renatured in 50 mM KCl/40% PEG200 (Fig 5: 50 mM Tris-HCl pH 7.5 with KCl, NaCl or none); gel shift buffer 40 mM Hepes-KOH pH 7.6, 50 mM KCl, 1 mM EDTA, 10% glycerol, 0.01% Triton X-100; pull-down 30 min at room temperature; +++/++/+ = >50/>16/>6% shift at 1 nM Rif1. Particulars: protein: recombinant; tags: N-term His6, C-term FLAG3; label: 32P.

The target in series [2] is T1, Rif1 full-length (His6-Rif1-FLAG3). The series is described as follows: EMSA; KCl; text: not bound very efficiently; EMSA with oligos heat-denatured and renatured in 50 mM KCl/40% PEG200 (Fig 5: 50 mM Tris-HCl pH 7.5 with KCl, NaCl or none); gel shift buffer 40 mM Hepes-KOH pH 7.6, 50 mM KCl, 1 mM EDTA, 10% glycerol, 0.01% Triton X-100; pull-down 30 min at room temperature; +++/++/+ = >50/>16/>6% shift at 1 nM Rif1. Particulars: protein: recombinant; tags: N-term His6, C-term FLAG3; label: 32P; hybrid G4.

For the next series, the target named is T2, Taz1 (Schizosaccharomyces pombe (fission …, UniProt P79005 1-663)).
T2 sequence: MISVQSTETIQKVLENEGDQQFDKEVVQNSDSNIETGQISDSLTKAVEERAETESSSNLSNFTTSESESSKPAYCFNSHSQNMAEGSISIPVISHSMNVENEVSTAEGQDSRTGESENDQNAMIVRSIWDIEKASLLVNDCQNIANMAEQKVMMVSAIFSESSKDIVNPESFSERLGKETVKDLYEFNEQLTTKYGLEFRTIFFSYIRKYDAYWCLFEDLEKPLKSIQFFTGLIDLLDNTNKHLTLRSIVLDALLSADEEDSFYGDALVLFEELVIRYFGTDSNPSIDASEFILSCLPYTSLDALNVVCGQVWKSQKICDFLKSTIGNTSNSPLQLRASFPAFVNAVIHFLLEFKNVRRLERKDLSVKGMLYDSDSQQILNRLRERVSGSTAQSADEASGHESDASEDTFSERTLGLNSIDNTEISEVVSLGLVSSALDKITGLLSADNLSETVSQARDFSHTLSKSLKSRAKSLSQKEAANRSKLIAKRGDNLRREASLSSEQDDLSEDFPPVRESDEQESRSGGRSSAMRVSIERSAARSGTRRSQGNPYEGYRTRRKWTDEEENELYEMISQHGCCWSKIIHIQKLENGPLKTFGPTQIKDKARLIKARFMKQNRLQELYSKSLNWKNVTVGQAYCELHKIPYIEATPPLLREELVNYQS
The series is described as follows: EMSA; EMSA with oligos heat-denatured and renatured in 50 mM KCl/40% PEG200 (Fig 5: 50 mM Tris-HCl pH 7.5 with KCl, NaCl or none); gel shift buffer 40 mM Hepes-KOH pH 7.6, 50 mM KCl, 1 mM EDTA, 10% glycerol, 0.01% Triton X-100; pull-down 30 min at room temperature; +++/++/+ = >50/>16/>6% shift at 1 nM Rif1. As to conditions: protein: recombinant; tags: N-term His6, C-term FLAG3; chain copies: 2; label: 32P; blunt.

The target of series [3] is T1, Rif1 full-length (His6-Rif1-FLAG3). The series is described as above. Particulars: protein: recombinant; tags: N-term His6, C-term FLAG3; label: 32P.
Series [4] shares this target. The series is described as follows: EMSA; KCl; text: poor binder; EMSA with oligos heat-denatured and renatured in 50 mM KCl/40% PEG200 (Fig 5: 50 mM Tris-HCl pH 7.5 with KCl, NaCl or none); gel shift buffer 40 mM Hepes-KOH pH 7.6, 50 mM KCl, 1 mM EDTA, 10% glycerol, 0.01% Triton X-100; pull-down 30 min at room temperature; +++/++/+ = >50/>16/>6% shift at 1 nM Rif1. Particulars: protein: recombinant; tags: N-term His6, C-term FLAG3; label: 32P; hybrid G4. A general note: In EMSA bound probe runs differently from free probe, usually more slowly.

B1: (AGTGGGG)3 (structured_DNA)
DNA: AGTGGGGAGTGGGGAGTGGGG
For B1, the binding result in series [1] is “binds”.

B2: Htelo1 (structured_DNA)
DNA: TAGGGTTAGGGTTAGGGTTAGGG
Turning to B2, in series [2], the binding result is reported as “no binding”.

B3: Taz1BS (dsDNA)
DNA 1: TTACAGGTTACAGGTTACAGG
DNA 2: CCTGTAACCTGTAACCTGTAA
As usually defined, the Kd is the constant that tells how readily two partners part at equilibrium. In the case of B3, in the series with Taz1, the dissociation constant Kd is roughly 30 nM.

B4: G10 (structured_DNA)
DNA: GGGGGGGGGG
Consider B4, for which, in series [3], the binding result is “binds”.

B5: (AGTGGGGG)3 (structured_DNA)
DNA: AGTGGGGGAGTGGGGGAGTGGGGG
As for B5, the binding result in series [1] is on record as “binds”.

B6: Htelo2 (structured_DNA)
DNA: TAGGGTTAGGGTTAGGGTTAGGGTT
With B6, in series [4], the binding result is “no binding”.
